Numbering of substitutions follows the chain as printed.
B1: PRT-685 (protein)
chain: MQITSVWTKGVTPLTPEQFRNNNEDVIHAPYLPNQGWYDITKAFNGKDNLLCGAATAGNMLHWWFDQNKEEIEAYLKKYPEKQKIIFNNQELFDLRKAINTKDSQTNSALFNYFRDKAFPNLSARQLGVMPDLVLDMFINGYYLNVFKTQSTDVNRPYQDKDKRGGIFDHVFNRGDQTTLLTARHDLKNKTLNDISTIIKQELSSGKALALSHTYANVSISHVINLWGADFNAEGNLEAIYVTDSDANASIGMKKYYVGRNAHGHVAISAKKIEGENIGAQVLGLFTLSSGKEIWQKLSLEHHHHHH
B2: PRT-493 (protein)
chain: MVTSVWTKGVTPPTNFTYGEDVLHAPYVANQGWYDITKTFNGKDNLLCGAATAGNMLHWWFDQNKEQIENYLKKHPEKQKIIFNNQELFDLKAAIDTKDSQLDSKLFEYFKEKAFPYLSTKHLGVFPDHVIDMFINGYRLSLTNHGPTPVKRGSKDKRGGIFDAVFTRGVQSKLLTNRHDLKNKTLKEISDLIKQELTEGKALGISHTYANVRINHVINLWGADFDAEGNLEAIYVTDSDTNASIGMKKYFVGVNSNGKVAISAKEIEEDNIGAQVLGLFTLSTGQDIWNQTNLEHHHHHH
B3: PRT-452 (protein)
chain: MVTSVWTKGVTPPANFTQGEDVFHAPYKANQGWYDITKAFDGGDDLLCGAATAGNMLHWWFDQNKDQIEAYLKEHPEKQKINFNGEQMFDVKEAIDTKDDQTNSELFNYFKEKAFPYLSTKHLGVFPDHVLDMFINGYRLSLTNHGPTPVKEGSKDPRGGIFDAVFTRGDQSKLLTSRHDLKNKTLKEISDLIKQELTEGKALALSHTYANVRINHVINLWGADFDSNGNLEAIYVTDSDSNASIGMKKYFVGVNSAGKVAISAKEIEDDNIGAQVLGLFTLSTGQDIWNQTNLEHHHHHH
B4: PRT-693 (protein)
chain: MQITSVWTKGVIPPTPEQFRYNNEDVIHAPYLPNQGWYDITKTFNGGDNLLCGAATAGNMLHWWFDQNKTEIEAYLSKYPEKQKIIFNNQELFDLRAAINTKDSQTNSQLFNYFRDKAFPNLSARQLGVMPDLVLDMFINGYYLNVFKTQSTDVNRPYQDRDKRGGIFDHVFGRGDQTTLLTARHDLKNGTLNDISTLIKQELQSGKALALSHTYANVSISHVINLWGADFNAEGNLEAIYVTDSDANSSIGMKKYYVGVNAHGKVAISAKKIEGENIGAQVLGLFTLSSGKEIWQKLSLEHHHHHH
B5: PRT-525 (protein)
chain: MITSVWTKGVTPPAKFTQGEDVFHAPYVANQGWYDITKTFNGKDNLLCGAATAGNMLHWWFDQNKEEIEAYLKKHPEKQKIIFNNQELFDLKAVINTKDSQTNSALFNYFKDKAFPNLSARRLGVFPDLVLDMFINGYYLNVYKTQTTDVNRTYQTKDRRGGIFDAVFTRGVQSKLLTERHDLKNKTLKEISDLIKQELTEGKALGLSHTYANVRINHVINLWGADFDSNGNLEAIYVTDSDTNASIGMKKYFVGVNSAGKVAISAKEIKEDNIGAQVLGLFTLSTGQDIWNQTNLEHHHHHH
B6: PRT-522 (protein)
chain: B5 chain with A14T, K15D, T17I, Q18K, V28K, N30G, L183F, N185E
B7: PRT-477 (protein)
chain: MVTSVWTKGVTPPTNFTYGEDVLHAPYVANQGWYDITKTFNGKDDLLCGAATAGNMLHWWFDQNKEQIENYLKKHPEKQKINFNGEQMFDVKEAIDTKDSQLDSKLFEYFKEKAFPYLSTKHLGVFPDHVIDMFINGYRLSLTNHGPTPVKRGSKDPRGGIFDAVFTRGDQSKLLTNRHDLKNKTLKEISDLIKQELTEGKALGISHTYANVRINHVINLWGADFDAEGNLEAIYVTDSDSNASIGMKKYFVGVNSNGKVAISAKEIEEDNIGAQVLGLFTLSTGQDIWNQTNLEHHHHHH
B8: PRT-518 (protein)
chain: MVTSVWTKGVTPPTDFIKGEDVFHAPYKAGQGWYDITKTFNGKDNLLCGAATAGNMLHWWFDQNKEYIEAYLKKHPEKQKIIFNNQELFDLKAAINTKGSQKNSELFNYFRDKAFPNLSARRLGVFPDLVLDMFINGYYLNVTKTQTTDVNRTYQEKDKRGGIFDAVFTRGVQSKLLTSRHDFKEKGLKEISDLIKQELTEGKALGLSHTYANVRINHVINLWGADFDSDGNLKAIYVTDSDTNASIGMKKYFVGVNSAGKVAISAKEIKEDNIGAQVLGLFTLSTGQDIWNQTNLEHHHHHH
B9: PRT-471 (protein)
chain: MVTSVWTKGVTPPTDFIYGEDVLHAPYKAGQGWYDITKAFDGGDDLLCGAATAGNMLHWWFDQNKEQIENYLKKHPEKQKINFNGEQMFDVKEAIDTKDSQTNSELFNYFKEKAFPYLSTKHLGVFPDHVIDMFINGYRLSLTNHGPTPVKRGSKDPRGGIFDAVFTRGDQSKLLTNRHDFKEKTLKEISDLIKQELTEGKALGISHTYANVRINHVINLWGADFDAEGNLEAIYVTDSDSNASIGMKKYFVGVNSNGKVAISAKEIEEDNIGAQVLGLFTLSTGQDIWNQTNLEHHHHHH
B10: PRT-486 (protein)
chain: MVTSVWTKGVTPPTDFIKGEDVFHAPYKAGQGWYDITKTFNGKDNLLCGAATAGNMLHWWFDQNKDQIERYLKEHPEKQKIIFNNQELFDLKAAIDTKDSQTDSKLFEYFKEKAFPYLSTKHLGVFPDHVLDMFINGYRLSLTNHGPTPVKEGSKDKRGGIFDAVFTRGVQSKLLTSRHDFKEKTLKEISDLIKQELTEGKALGLSHTYANVRINHVINLWGADFDSEGNLKAIYVTDSDTNASIGMKKYFVGVNSAGKVAISAKEIKEDNIGAQVLGLFTLSTGQDIWNQTNLEHHHHHH
B11: PRT-483 (protein)
chain: B10 chain with R70A, S100D, D103N, F181L, E183N, G204A, E228N, K232E, K268E, E269D
B12: PRT-504 (protein)
chain: MITSVWTKGVTPPTDFIKGEDVFHAPYKAGQGWYDITKAFDGGDDLLCGAATAGNMLHWWFDQNKEYIEAYLKKHPEKQKIMFGDQELLDVRKAINTKGSQKNSELFNYFRDKAFPNLSARRLGVMPDLVLDMFINGYYLNVTKTQTTDVNRTYQEKDKRGGIFDAVFTRGDQSKLLTSRHDLKNKGLNEISQLIKQELTEGKALGLSHTYANVRINHVINLWGADFDADGNLEAIYVTDSDSNASIGMKKYFVGVNSAGKVAISAKEIKEDNIGAQVLGLFTLSTGQDIWNQTNLEHHHHHH
B13: PRT-479 (protein)
chain: MITSVWTKGVTPPTDFIYGEDVLHAPYKAGQGWYDITKAFDGGDDLLCGAATAGNMLHWWFDQNKEQIENYLKKHPEKQKINFNGEQMFDVKEAIDTKDSQTNSELFNYFKEKAFPYLSTKHLGVFPDHVIDMFINGYRLSLTNHGPTPVKRQEKDPRGGIFDAVFGRGDQTKLLTNRHDLKNKTLNEISQLIKQELTEGKALGISHTYANVRINHVINLWGADFDAEGNLEAIYVTDSDSNASIGMKKYFVGVNSNGKVAISAKEIEEDNIGAQVLGLFTLSTGQKIWNKTNLEHHHHHH
B14: PRT-467 (protein)
chain: B13 chain with Y18K, L23F, E66D, N70R, K74E, I131L, N177S, I205L, N257A, E268K
B15: PRT-602 (protein)
chain: MANQEIRYSEVTPYHITSVWTKGVTPPANFTQGEDVFHAPYVANQGWYDITKTFNGKDDLLCGAATAGNMLHWWFDQNKDQIERYLEEHPEKQKINFNGEQMFDVKEAIDTKDSQTDSKLFEYFKEKAFPYLSTKHLGVFPDHVIDMFINGYRLSLTNHGPTPVKEGSKDPRGGIFDAVFTRGDQSKLLTSRHDFKEKTLKEISDLIKQELTEGKALGLSHTYANVRINHVINLWGADFDSEGNLKAIYVTDSDSNASIGMKKYYVGVNSAGKVAISAKEIEEDNIGAQVLGLFTLSTGQDIWNQTNLEHHHHHH

Biological target: pooled human IgG (human IgG1, 2, 3 and 4)

Protein	Enzyme Activity Endpoint Assay: Fab′2	Enzyme Activity Endpoint Assay: Fc	Enzyme Activity Endpoint Assay: IgG	Enzyme Activity Endpoint Assay: scIgG	Enzyme Activity Endpoint Assay (purified): Fab'2	Enzyme Activity Endpoint Assay (purified): Fc	Enzyme Activity Endpoint Assay (purified): IgG	Enzyme Activity Endpoint Assay (purified): scIgG
B1	1200 ng/µL	448 ng/µL	0 ng/µL	0 ng/µL	–	–	–	–
B2	1170 ng/µL	412 ng/µL	0 ng/µL	0 ng/µL	–	–	–	–
B3	0 ng/µL	0 ng/µL	1870 ng/µL	0 ng/µL	–	–	–	–
B4	1280 ng/µL	436 ng/µL	0 ng/µL	0 ng/µL	–	–	–	–
B5	1340 ng/µL	386 ng/µL	0 ng/µL	0 ng/µL	–	–	–	–
B6	736 ng/µL	253 ng/µL	0 ng/µL	0 ng/µL	–	–	–	–
B7	543 ng/µL	277 ng/µL	0 ng/µL	224 ng/µL	–	–	–	–
B8	1220 ng/µL	423 ng/µL	0 ng/µL	0 ng/µL	–	–	–	–
B9	1110 ng/µL	357 ng/µL	0 ng/µL	0 ng/µL	–	–	–	–
B10	145 ng/µL	210 ng/µL	107 ng/µL	627 ng/µL	–	–	–	–
B11	1260 ng/µL	459 ng/µL	0 ng/µL	0 ng/µL	–	–	–	–
B12	1310 ng/µL	442 ng/µL	0 ng/µL	0 ng/µL	–	–	–	–
B13	1340 ng/µL	481 ng/µL	0 ng/µL	0 ng/µL	–	–	–	–
B14	685 ng/µL	374 ng/µL	57 ng/µL	375 ng/µL	–	–	–	–
B15	543 ng/µL	375 ng/µL	0 ng/µL	212 ng/µL	543 ng/µL	375 ng/µL	0 ng/µL	212 ng/µL

Reference: patent US20250027068
